Source: patent US6027884

The sequences below were run on Alu I restriction endonuclease (assay: cleavage_in_vitro). Conditions: first strand cleavage rate constant; 13 uM (AT)2 competitor.

Point of comparison: “ATATATAGCTATATAT (double strand) [(AT)3 AGCT(AT)3]”, activity 0.0115 min⁻¹. Against it:
- AAAAAAAAAGCTTTTTTTTT (double strand) [(AA)4 AGCT(TT)4] — lower, 0.0031 min⁻¹
- AAAAAAAGCTTTTTTT (double strand) [(AA)3 AGCT(TT)3] — lower, 0.0039 min⁻¹
- AAAAAGCTTTTT (double strand) [(AA)2 AGCT(TT)2] — lower, 0.0063 min⁻¹
- AAATATAGCTATATTT (double strand) [(AA)(AT)2 AGCT(AT)2 TT] — lower, 0.0077 min⁻¹
- ATATATATAGCTATATATAT (double strand) [(AT)4 AGCT(AT)4] — lower, 0.0093 min⁻¹

Same assay, conditions: first strand cleavage rate constant; 13 uM (AT)2 competitor, 95 nM labeled duplex

“ATATAGCTATAT (double strand) [(AT)2 AGCT(AT)2]” was tested, and the activity was 0.019 min⁻¹.
